# Test results reported in PMC6123713, “Adenylate kinase potentiates the capsular polysaccharide by modulating Cps2D in Streptococcus pneumoniae D39” (Experimental & Molecular Medicine, 2018).
# Where a chain is given by its changes, count along the chain named.
# T1: His6-Cps2D wild-type (Streptococcus pneumoniae type 2 (D39), UniProt Q9ZII6 1-226)
# T1 construct: autophosphorylating tyrosine kinase Cps2D of Streptococcus pneumoniae type 2 (D39), approximately 226 amino acids; also called Cps2D WT; pCPS03; source: recombinant, purified to homogeneity; plasmid pCPS03 (E. coli plasmid pHis-parallel 2); cloning and purification in the Supplementary Information
# T1 sequence: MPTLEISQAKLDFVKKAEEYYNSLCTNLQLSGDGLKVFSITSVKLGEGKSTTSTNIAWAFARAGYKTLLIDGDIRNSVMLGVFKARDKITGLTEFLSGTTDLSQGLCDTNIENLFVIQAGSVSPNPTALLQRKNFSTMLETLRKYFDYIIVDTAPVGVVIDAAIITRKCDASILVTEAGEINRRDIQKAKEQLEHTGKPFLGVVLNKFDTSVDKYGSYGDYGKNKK
# T2: His6-Cps2D 3Y3E (Y215E/Y218E/Y221E) (Streptococcus pneumoniae type 2 (D39), UniProt Q9ZII6 1-226, Y215E | Y218E | Y221E)
# T2 construct: tyrosine kinase Cps2D of Streptococcus pneumoniae type 2 (D39), triple phosphomimetic mutant of the C-terminal tyrosine cluster; also called pCPS04; source: recombinant, purified to homogeneity; plasmid pCPS04 (E. coli plasmid pHis-parallel 2); cloning and purification in the Supplementary Information
# T2 sequence: T1 sequence with Y215E, Y218E, Y221E
# B1: GST-SpAdK (Streptococcus pneumoniae adenylate kinase, GST-tagged) (enzyme)
# chain: MNLLIMGLPGAGKGTQAAKIVEQFHVAHISTGDMFRAAMANQTEMGVLAKSYIDKGELVPDEVTNGIVKERLSQDDIKETGFLLDGYPRTIEQAHALDKTLAELGIELEGIINIEVNPDSLLERLSGRIIHRVTGETFHKVFNPPVDYKEEDYYQREDDKPETVKRRLDVNIAQGEPIIAHYRAKGLVHDIEGNQDINDVFSDIEKVLTNLK
# notes: adenylate kinase of Streptococcus pneumoniae (SpAdK); also called glutathione S-transferase (GST)-SpAdK; pGST-ADK; source: recombinant, purified; plasmid pGST-ADK (E. coli plasmid pGST-parallel 2); cloning and purification in the Supplementary Information
# Legend:
# His6-Cps2D wild-type = target: T1, His6-Cps2D wild-type; assay: BLI; Blitz system; His6-Cps2D protein (1 μM) immobilised on Ni-NTA sensors; GST-SpAdK 2.5-50 μM; buffer D (250 mM NaCl, 50 mM Tris-HCl, pH 7.5, 1 mM DTT) with 5 mM Mg-ATP; GST and sensor background subtracted; steady-state analysis; apparent Kd; conditions: both partners purified
# [1] = target: T2, His6-Cps2D 3Y3E (Y215E/Y218E/Y221E); assay: as above; conditions: both partners purified
binder,measurement,setting,value
B1,Kd,His6-Cps2D wild-type,31 ± 5 µM
same,Kd,[1],40 ± 17 µM
